In article PMC7118729 one finds IC50 and Ki data, which are given here for 2 molecules.

As usually defined, the IC50 is the concentration that inhibits the measured activity by half. A higher IC50 goes with lower potency. By Ki is commonly meant a measure of affinity in units of concentration, obtained from inhibition or displacement. Read a high Ki as a looser hold on the target.

In this data set the target is Nsp15 endoribonuclease WT (SARS coronavirus, UniProt P0C6X7 6430-6775).

B1: rA16 (ssRNA)
RNA: AAAAAAAAAAAAAAAA
In turn, B1 came in with an IC50 of 53 nM and an inhibition constant (Ki) of 7.6 nM.

B2: rU16 (U16) (ssRNA)
RNA: UUUUUUUUUUUUUUUU
In turn, B2 registered an IC50 of 15 nM and a Ki of 2.3 nM.
